Experimental data taken from US20060292074A1 (SCHERING AKTIENGESELLSCHAFT, published 2006).

How the values were obtained:
[1] = molecular target: T1, native tomoregulin (TR) on TR-expressing cells (PC3-TR, CHO-TR) (human, UniProt Q9UIK5 41-374); assay: FACS on PC3-TR cells, IgG against scFv monomer; not exactly quantified
T1 construct: whole, on cells; also called native TR; native receptor
T1 sequence (looked up): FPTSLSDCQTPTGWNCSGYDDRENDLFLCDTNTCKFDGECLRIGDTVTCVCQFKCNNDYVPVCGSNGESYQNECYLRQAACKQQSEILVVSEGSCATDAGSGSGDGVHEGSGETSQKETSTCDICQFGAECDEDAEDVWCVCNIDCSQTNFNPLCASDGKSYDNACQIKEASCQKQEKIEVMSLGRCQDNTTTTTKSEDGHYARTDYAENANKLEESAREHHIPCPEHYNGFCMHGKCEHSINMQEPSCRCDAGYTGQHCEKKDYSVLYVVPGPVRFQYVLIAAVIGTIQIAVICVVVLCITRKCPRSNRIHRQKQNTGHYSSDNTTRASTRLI
Method: (§1) Cells were detached with Cell Dissociation Buffer (GIBCO Invitrogen, Carlsbad, Calif.) and collected by centrifugation of 3000 rpm at 4° C. for 5 min. 2×10⁵ cells in 100 μl PBS buffer were incubated for 1 h at 4° C. with anti-TR antibodies at a range of concentrations. Excess antibody was washed away with 1 ml PBS followed by centrifugation, and cells were resuspended and incubated for 45 min at 4° C. in PBS 100 μl containing anti-mouse IgG-FITC (10 μg/mL, Vector Labs Inc.) as the second antibody. Excess antibody was washed away with 1 mL PBS and by centrifugation. Cells were resuspended in 200 μL PBS containing 5 μL propidium iodide (1 μg/ml). Fluorescence intensity was measured on a FACS Calibur (Becton Dickinson). Experiments were performed in triplicate.
(§2) Binding of AT-19 IgG to PC3 cells expressing TR was compared to mouse anti-TR IgG 2H8 by FACS. 2H8 is a murine IgG1 monoclonal antibody that reacts with the follistatin domains of the extra-cellular region of human TR protein (Afar et al., Mol. Cancer Ther., 3:921, 2004). It is used throughout as a positive control antibody.

[2] = molecular target: T1, native tomoregulin (TR) on …; assay: live cell ELISA on PC3-TR cells
[3] = molecular target: T1, native tomoregulin (TR) on …; assay: FACS on PC3-TR cells
Method: as §1, §2

[4] = molecular target: T2, recombinant TR protein (extracellular domain of TR, amino acids 1-302, C-terminal 6xHis tag) (human) (UniProt Q9UIK5); assay: ICELISA against direct ELISA on recombinant TR
T2 sequence (chain, glycosylated): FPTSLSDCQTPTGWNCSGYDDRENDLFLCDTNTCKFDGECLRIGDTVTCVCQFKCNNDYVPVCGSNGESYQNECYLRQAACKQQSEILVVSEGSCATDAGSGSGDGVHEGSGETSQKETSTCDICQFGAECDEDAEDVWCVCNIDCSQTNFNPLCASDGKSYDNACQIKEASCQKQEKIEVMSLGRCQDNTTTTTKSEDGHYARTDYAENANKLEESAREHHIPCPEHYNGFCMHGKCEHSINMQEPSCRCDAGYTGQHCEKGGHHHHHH

[5] = molecular target: T2, recombinant TR protein (extracellular domain of TR, amino acids 1-302, C-terminal 6xHis tag) (human); assay: ICELISA on recombinant TR, scFv pre-incubated with anti-E-tag antibody; based on total scFv
[6] = molecular target: T3, native tomoregulin (TR) on TR-expressing cells (PC3-TR, CHO-TR) (human) (UniProt Q9UIK5); assay: live cell ICELISA on PC3-TR cells; based on total scFv concentration
T3 sequence (looked up): T1 sequence (looked up)

[7] = molecular target: T4, recombinant TR protein (extracellular domain of TR, amino acids 1-302, C-terminal 6xHis tag) (human, UniProt Q9UIK5 41-302, glycosylated); assay: direct ELISA on recombinant TR, monomeric scFv
T4 construct: range 41-302; Secreted from baculovirus-infected High Five cells, purified by Ni chelate and size exclusion chromatography; also called 6×his-tagged recombinant TR; recombinant protein
T4 sequence: T2 sequence (chain, glycosylated)

B1: AT-19 IgG (fully human IgG1 format of AT-19) (antibody, V domains shown)
VH: QVQLVQSGGGLVQPGGSLRLSCAASGFTFSNYAMSWVRQAPGKGLEWVSAISGNGGATYYADSMKGRFTISRDNSKNTLSLQLNSLRVEDTAVYYCAKSLIWGYDRGVDYWGQGTLVTVSA
VL: HVILTQPPSASGTPGQRVTISCSGGASNIGTNSVNWYQQLPGTAPKLLLYTNDHRPSGVPDRFSGKSGTSASLAISGLQAEDEGDYYCAAWDDTMNGHVVFGGGTKLTVLG
notes: also called fully human AT-19 IgG
Question: For B1, which “avidity effect (fold) against the scFv monomer” value [1] is on record?
Answer: The value was over 20 fold.

Question: What about the EC50 [2] of the same binder?
Answer: The EC50 was 0.44 nM.

Question: And the EC50 [3]?
Answer: The EC50 was 0.17 nM.

B2: AT-19 scFv immune complex (AT-19 scFv dimerized by pre-incubation with mouse anti-E-tag monoclonal IgG) (protein, part only; not given: E-tag and anti-E-tag IgG, not shown: small tags and cut ends)
scFv, part: QVQLVQSGGGLVQPGGSLRLSCAASGFTFSNYAMSWVRQAPGKGLEWVSAISGNGGATYYADSMKGRFTISRDNSKNTLSLQLNSLRVEDTAVYYCAKSLIWGYDRGVDYWGQGTLVTVSAGGGGSGGGGSGGGGSGAPHVILTQPPSASGTPGQRVTISCSGGASNIGTNSVNWYQQLPGTAPKLLLYTNDHRPSGVPDRFSGKSGTSASLAISGLQAEDEGDYYCAAWDDTMNGHVVFGGGTKLTVLG
Question: For B2, which fold improvement of EC50 against monomeric AT-19 scFv [4] is on record?
Answer: Its fold improvement of EC50 against monomeric AT-19 scFv is over 20 fold.

Question: What about the EC50 [5] of the same binder?
Answer: Its EC50 is 1.3 nM.

Question: What about the EC50 [6] of the same binder?
Answer: Its EC50 is 8.5 nM.

B3: AT-19 scFv (monomeric, monovalent single-chain anti-TR antibody) (scFv)
scFv: B2 scFv, part
notes: also called monovalent AT-19 scFv; monomeric AT-19 scFv; not shown: E-tag from the pZ603 (pCANTAB5E-based) vector
Question: B3 was tested. Which EC50 [7] did it give?
Answer: The EC50 was 22 nM.
